Measurements from publication PMC4019986, “Structural and biochemical characterization of the KLHL3–WNK kinase interaction important in blood pressure regulation” (Biochemical Journal, 2014).
Several values for one entry are separate records, joined by “and”; a condition that tells them apart may be missing. Equal entries are not always repeated. Where two headings read alike, the source gives them in different places. Ends that are not written are not given here. Peptide text beside a SMILES is read from it. * marks the point of attachment. X1 = N[C@H]1CS[As]2SC[C@H](NC1=O)C(=O)N1CCC[C@H]1C(=O)NCC(=O)N[C@H]1CS[As](SC[C@@H](C(=O)*)NC1=O)c1c(O)ccc3c1Oc1c(ccc(O)c12)C31OC(=O)c2ccccc21

T1: GST–KLHL3^290–587 (Homo sapiens, UniProt Q9UH77)
T1 construct: the isolated C-terminal Kelch domain (residues 290–587); made in house; host or cells: E. coli BL21
T1 sequence (Q9UH77 290-587): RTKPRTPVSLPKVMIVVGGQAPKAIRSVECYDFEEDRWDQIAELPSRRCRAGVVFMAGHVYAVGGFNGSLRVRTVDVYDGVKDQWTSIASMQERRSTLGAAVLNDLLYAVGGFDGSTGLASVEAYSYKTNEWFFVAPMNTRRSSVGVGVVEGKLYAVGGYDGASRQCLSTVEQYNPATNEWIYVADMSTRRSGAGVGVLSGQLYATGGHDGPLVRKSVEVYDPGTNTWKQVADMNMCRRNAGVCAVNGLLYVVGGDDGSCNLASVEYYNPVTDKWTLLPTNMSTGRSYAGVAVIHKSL

T2: GST–KLHL3^290–587 (human, UniProt Q9UH77-1 290-587)
T2 construct: KLHL3, human, NM_017415.2, C-terminal Kelch domain, residues 290-587; pGEX6P-1, PreScission site between GST and KLHL3; eluted with glutathione as the GST fusion; also called isolated KLHL3 Kelch domain; GST-KLHL3 290-587 wild-type; source: E. coli BL21, purified (glutathione–Sepharose); not shown: GST, N-terminal, kept
T2 sequence (looked up): T1 sequence (Q9UH77 290-587)

T3: human KLHL3 Kelch domain (residues 298–587) (human, UniProt Q9UH77-1 298-587)
T3 construct: KLHL3, human, NM_017415.2, Kelch domain, residues 298-587; Vector pNIC28-Bsa4 (GenBank EF198106); The results speak of unmodelled residues 296–299, which lie partly before the stated limit; also called KLHL3 (crystallization construct); source: E. coli BL21(DE3)-R3-pRARE, purified (Ni-Sepharose, rTEV cleavage, HiTrap Q, Superdex 200); not shown: His6, N-terminal, cleaved
T3 sequence (looked up): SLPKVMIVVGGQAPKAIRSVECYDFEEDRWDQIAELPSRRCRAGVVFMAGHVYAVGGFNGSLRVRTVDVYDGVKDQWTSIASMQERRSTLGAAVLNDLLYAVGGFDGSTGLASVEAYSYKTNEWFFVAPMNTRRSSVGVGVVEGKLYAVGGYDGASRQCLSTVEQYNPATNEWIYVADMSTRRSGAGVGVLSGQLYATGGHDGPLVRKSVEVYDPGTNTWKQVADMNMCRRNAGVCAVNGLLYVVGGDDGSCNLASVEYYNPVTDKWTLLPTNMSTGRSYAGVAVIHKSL

T4: human KLHL2 Kelch domain (residues 294–593) (human, UniProt O95198 294-593)
T4 construct: KLHL2, human, IMAGE clone 4791972, Kelch domain, residues 294-593; Vector pNIC28-Bsa4 (GenBank EF198106); The results speak of unmodelled residues 292–305, which lie partly before the stated limit; also called KLHL2 (crystallization construct); Mayven; source: E. coli BL21(DE3)-R3-pRARE, purified (Ni-Sepharose, rTEV cleavage, HiTrap SP, Superdex 200); not shown: His6, N-terminal, cleaved
T4 sequence (looked up): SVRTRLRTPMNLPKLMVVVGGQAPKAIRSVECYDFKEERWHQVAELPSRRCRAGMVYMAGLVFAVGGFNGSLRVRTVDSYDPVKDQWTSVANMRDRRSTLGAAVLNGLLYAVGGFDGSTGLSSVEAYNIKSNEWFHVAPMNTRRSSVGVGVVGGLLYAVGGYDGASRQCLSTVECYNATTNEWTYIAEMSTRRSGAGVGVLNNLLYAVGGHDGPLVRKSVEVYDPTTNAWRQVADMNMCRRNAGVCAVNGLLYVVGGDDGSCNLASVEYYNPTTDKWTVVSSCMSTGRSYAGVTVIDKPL

B1: WNK3 degron peptide (WNK3 WT 537–547) (peptide)
peptide: ECEETEVDQHV
modifications: not fully specified (N-terminus); also: Lumio Green fluorophore on N-terminal linker CCPGCCGGGG
notes: also called WNK3 motif; source: synthetic peptide (GL Biochem)
B2: 11-residue WNK4 peptide (EPEEPEADQHQ) used for crystallization (peptide)
peptide: EPEEPEADQHQ
notes: WNK4 acidic degron, residues 557-567; the sentence 'All peptides contained an N-terminal linker' stands in the fluorescence polarization methods; also called WNK4 11-mer peptide; 11-residue WNK4 degron motif; source: synthetic peptide (GL Biochem)
B3: NRF2 degron peptide (NRF2 WT 74–84) (peptide)
peptide: CCPGCCGGGGLQLDEETGEFL
modifications: cysteine pairing not given here; also: Lumio Green fluorophore on N-terminal linker CCPGCCGGGG
notes: nuclear factor-erythroid 2-related factor 2 (NRF2), degron motif, residues 74-84; also called NRF2 degron motif; source: synthetic peptide (GL Biochem)
B4: WNK4 E562K 549–567 peptide (peptide)
peptide: GPPSVFPPEPEEPKADQHQ
modifications: not fully specified (N-terminus); also: Lumio Green fluorophore on N-terminal linker CCPGCCGGGG
notes: source: synthetic peptide (GL Biochem)
B5: WNK4 WT 554–567 peptide (peptide)
peptide: FPPEPEEPEADQHQ
modifications: not fully specified (N-terminus); also: Lumio Green fluorophore on N-terminal linker CCPGCCGGGG
notes: WNK4 acidic degron, residues 554-567; source: synthetic peptide (GL Biochem)
B6: WNK4 WT 554–566 peptide (peptide)
peptide: FPPEPEEPEADQH
modifications: not fully specified (N-terminus); also: Lumio Green fluorophore on N-terminal linker CCPGCCGGGG
notes: WNK4 acidic degron, residues 554-566; source: synthetic peptide (GL Biochem)
B7: WNK4 WT 555–567 peptide (peptide)
peptide: PPEPEEPEADQHQ
modifications: not fully specified (N-terminus); also: Lumio Green fluorophore on N-terminal linker CCPGCCGGGG
notes: WNK4 acidic degron, residues 555-567; source: synthetic peptide (GL Biochem)
B8: WNK4 WT 554–564 peptide (peptide)
peptide: FPPEPEEPEAD
modifications: not fully specified (N-terminus); also: Lumio Green fluorophore on N-terminal linker CCPGCCGGGG
notes: WNK4 acidic degron, residues 554-564; source: synthetic peptide (GL Biochem)
B9: WNK4 Q565E 549–567 peptide (peptide)
peptide: GPPSVFPPEPEEPEADEHQ
modifications: not fully specified (N-terminus); also: Lumio Green fluorophore on N-terminal linker CCPGCCGGGG
notes: as for B4
B10: WNK4 D564A 549–567 peptide (peptide)
peptide: GPPSVFPPEPEEPEAAQHQ
modifications: not fully specified (N-terminus); also: Lumio Green fluorophore on N-terminal linker CCPGCCGGGG
notes: as for B4
B11: WNK4 WT 556–567 peptide (peptide)
peptide: PEPEEPEADQHQ
modifications: not fully specified (N-terminus); also: Lumio Green fluorophore on N-terminal linker CCPGCCGGGG
notes: WNK4 acidic degron, residues 556-567; source: synthetic peptide (GL Biochem)
B12: core 11-residue WNK4 peptide (WNK4 WT 557–567), Lumio-Green-labelled (peptide)
peptide: EPEEPEADQHQ
modifications: not fully specified (N-terminus); also: Lumio Green fluorophore on N-terminal linker CCPGCCGGGG
notes: WNK4 acidic degron, residues 557-567; also called WNK1/4 degron; 11-residue WNK4 (557–567) degron peptide; source: synthetic peptide (GL Biochem)

Key:
GST–KLHL3^290–587 [1] = target: T1, GST–KLHL3^290–587; experiment: Fluorescence polarization binding of Lumio-Green-labelled degron peptides to the KLHL3 Kelch domain
[2] = target: core 11-residue WNK4 peptide (WNK4 WT 557–567), Lumio-Green-labelled; experiment: fluorescence polarisation; Kelch protein titrated against 10 nM Lumio-Green-labelled peptide; 25°C; 50 mM Tris/HCl pH 7.5, 150 mM NaCl, 2 mM DTT; one-site specific binding with Hill slope; duplicates, at least 12 points per curve
[3] = target: T5, KEAP1 full-length protein (residues 1–624) (UniProt Q14145 1-624); experiment: as above; details: both partners purified
T5 construct: KEAP1, NM_203500.1, amplified from EST IMAGE 3163902, residues 1-624; NM_203500.1 is a human transcript as far as I recall; also called Kelch-like enoyl-CoA hydratase-associated protein 1; source: Sf21 cells, purified (ampicillin–Sepharose, TEV protease release, size-exclusion chromatography); not shown: DAC, N-terminal, cleaved
T5 sequence (Q14145 whole entry, the tested form may be a part): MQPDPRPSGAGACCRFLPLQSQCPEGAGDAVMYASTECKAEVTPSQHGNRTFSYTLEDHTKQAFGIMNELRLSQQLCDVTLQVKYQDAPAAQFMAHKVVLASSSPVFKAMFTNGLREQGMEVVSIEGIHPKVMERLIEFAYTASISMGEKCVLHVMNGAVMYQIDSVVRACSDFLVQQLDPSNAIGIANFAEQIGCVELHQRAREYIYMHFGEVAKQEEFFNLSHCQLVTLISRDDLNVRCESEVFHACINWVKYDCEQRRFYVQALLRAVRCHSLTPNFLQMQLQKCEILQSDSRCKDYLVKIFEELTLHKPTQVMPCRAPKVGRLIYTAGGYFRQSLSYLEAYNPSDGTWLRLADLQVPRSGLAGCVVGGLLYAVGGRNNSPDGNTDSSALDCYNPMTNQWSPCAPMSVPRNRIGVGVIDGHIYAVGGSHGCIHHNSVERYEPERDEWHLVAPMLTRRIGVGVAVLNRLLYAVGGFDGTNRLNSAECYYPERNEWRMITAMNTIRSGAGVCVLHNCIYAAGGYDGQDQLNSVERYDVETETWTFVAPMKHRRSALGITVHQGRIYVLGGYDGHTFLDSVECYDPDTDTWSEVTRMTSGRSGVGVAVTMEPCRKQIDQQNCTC

GST–KLHL3^290–587 [4] = target: T2, GST–KLHL3^290–587; experiment: as above; details: both partners purified
[5] = target: T3, human KLHL3 Kelch domain (residues …); experiment: crystal structure; KLHL3 Kelch domain (9 mg/ml) with 2 mM WNK4 11-mer peptide; sitting drop, 0.1 M acetate pH 4.3, 0.2 M ammonium sulfate, 25–35% PEG 4000; details: both partners purified
[6] = target: T4, human KLHL2 Kelch domain (residues …); experiment: crystal structure; KLHL2 Kelch domain (9 mg/ml) with 2 mM WNK4 11-mer peptide; sitting drop, 20°C, 0.1 M Hepes pH 7.2, 2.5 M ammonium sulfate, 2% PEG 400; details: both partners purified
[7] = disease-causing mutation within the WNK4 degron peptide, Figure 1C

| Molecule | Kd (GST–KLHL3^290–587 [4]) | further results |
| --- | --- | --- |
| CC(C)[C@H](NC(=O)[C@H](CO)NC(=O)[C@@H]1CCCN1C(=O)[C@@H]1CCCN1C(=O)CNC(=O)CNC(=O)CNC(=O)CNC(=O)CNC(=O)[C@@H]1CS[As]2SC[C@H](NC(=O)CNC(=O)[C@@H]3CCCN3C(=O)[C@@H]3CS[As](SC[C@H](N)C(=O)N3)c3c(O)ccc4c3Oc3c(ccc(O)c32)C42OC(=O)c3ccccc32)C(=O)N1)C(=O)N[C@@H](Cc1ccccc1)C(=O)N1CCC[C@H]1C(=O)N1CCC[C@H]1C(=O)N[C@@H](CCC(=O)O)C(=O)N1CCC[C@H]1C(=O)N[C@@H](CCC(=O)O)C(=O)N[C@@H](CCC(=O)O)C(=O)N1CCC[C@H]1C(=O)N[C@@H](CCC(=O)O)C(=O)N[C@@H](C)C(=O)N[C@@H](CC(=O)O)C(=O)N[C@@H](CCC(=O)O)C(=O)N[C@@H](Cc1cnc[nH]1)C(=O)N[C@@H](CCC(N)=O)C(=O)O (stereo partly shown) [WNK4 Q565E 549–567] (X1-GGGGGPPSVFPPEPEEPEADEHQ-OH; N-terminus and C-terminus assumed) |  | reduction in binding relative to wild-type WNK4 degron peptide (GST–KLHL3^290–587 [1]): 10 fold |
| WNK4 D564A 549–567: 19-residue WNK4 degron peptide with Gordon's syndrome mutation D564A, Lumio Green labelled (GPPSVFPPEPEEPEAAQHQ; not fully specified (N-terminus); also: Lumio Green fluorophore on N-terminal linker CCPGCCGGGG) |  | reduction in binding relative to wild-type WNK4 degron peptide (GST–KLHL3^290–587 [1]; [7]): 10 fold |
| WNK4 E562K 549–567: 19-residue WNK4 degron peptide with Gordon's syndrome mutation E562K, Lumio Green labelled (GPPSVFPPEPEEPKADQHQ; not fully specified (N-terminus); also: Lumio Green fluorophore on N-terminal linker CCPGCCGGGG) |  | binding to KLHL3 in words (GST–KLHL3^290–587 [1]; [7]): virtually abolished binding |
| GST–KLHL2^298–593 (from UniProt O95198 298-593) (domain or fragment) |  | Kd [2]: 260 nM |
| B1 | 840 nM | Kd [3]: > 50000 nM |
| B2 |  | binding result [5]: binds; binding result [6]: binds |
| B3 | > 50000 nM |  |
| B4 | > 50000 nM |  |
| B5 | 710 nM |  |
| B6 | 7810 nM |  |
| B7 | 910 nM |  |
| B8 | > 50000 nM |  |
| B9 | 6210 nM |  |
| B10 | > 50000 nM |  |
| B11 | 290 nM |  |
| B12 | 690 nM and 350 nM and 510 nM | Kd [3]: > 50000 nM |
